The values below come from US11407819B2, “Compositions and use of a fibrinogen binding motif present in EFB and COA for therapeutics and vaccines against Staphylococcus aureus” (priority 2013, dated 2022).

Assay [1] has as its system C2C12-α1 and C2C12-α2 cells (human integrin α1 or α2 subunits). The assay can be described thus: C2C12 cell adhesion to coated DC proteins. Type of assay: cell-based, mouse. The conditions noted are these: 10 μg coated protein; 1 hour. The protocol: Integrin interactions with DC2-Fg—A11 cell culture supplies were purchased from Life Technologies and used as received unless otherwise noted. […] Mouse myoblast C2C12, C2C12-α1, and C2C12-α2 cells were cultured in Dulbecco's modified Eagle's medium (DMEM) with 10 vol % fetal bovine serum (FBS) and 1 vol % penicillin-streptomycin, 1 mg ml^−1 geneticin, or 10 μg ml^−1 puromycin, respectively. To assess C2C12 cell adhesion, 48 well tissue culture polystyrene (TCPS) plates were coated with 10 μg of DC1 (negative control—no integrin binding sites), DC2, DC2-Fg, or collagen type I (positive control) overnight at 4° C. Proteins were coated in triplicate for each cell type. Wells were blocked with 4 wt % bovine serum albumin (BSA) in PBS for 1 hour at room temperature and rinsed with sterile PBS. Cells were adapted to serum-free media (DMEM with 1 mM CaCl2, 1 mM MgCl2, and appropriate antibiotic) for 12 hours prior to trypsinization and seeding at 5,000 cells cm^−1. […] Lysates from samples and from known standards were transferred to a 96 well plate, and cell numbers were measured with the CYTOTOX 96® NON-RADIOACTIVE CYTOTOXICITY ASSAY. […] Then, 50 μl of stop solution was added to each well, and the absorbance was read at 490 nm. Cell numbers were quantified using standards of known cell numbers for each cell line.

A further assay has as its target T1, Fibrinogen (Homo sapiens, UniProt P02671+P02675+P02679).
T1 sequence (P02671 20-629 limits assumed): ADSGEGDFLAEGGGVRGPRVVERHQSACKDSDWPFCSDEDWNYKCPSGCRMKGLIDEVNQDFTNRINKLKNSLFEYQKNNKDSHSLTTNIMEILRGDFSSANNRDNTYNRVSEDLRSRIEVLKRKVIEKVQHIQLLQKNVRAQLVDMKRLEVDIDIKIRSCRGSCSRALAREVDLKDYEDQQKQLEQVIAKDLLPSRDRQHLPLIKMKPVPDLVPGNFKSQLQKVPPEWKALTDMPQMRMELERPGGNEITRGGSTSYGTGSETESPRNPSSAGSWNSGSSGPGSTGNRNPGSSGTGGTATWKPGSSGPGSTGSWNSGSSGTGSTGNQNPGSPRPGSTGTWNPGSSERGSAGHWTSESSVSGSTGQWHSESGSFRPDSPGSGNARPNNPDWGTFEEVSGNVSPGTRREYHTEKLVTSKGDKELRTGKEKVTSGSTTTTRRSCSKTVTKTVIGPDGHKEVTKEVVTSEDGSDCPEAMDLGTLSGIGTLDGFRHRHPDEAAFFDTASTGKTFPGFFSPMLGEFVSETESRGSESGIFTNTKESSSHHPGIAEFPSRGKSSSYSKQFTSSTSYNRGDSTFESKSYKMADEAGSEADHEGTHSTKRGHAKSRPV
T1 sequence (P02675 31-491): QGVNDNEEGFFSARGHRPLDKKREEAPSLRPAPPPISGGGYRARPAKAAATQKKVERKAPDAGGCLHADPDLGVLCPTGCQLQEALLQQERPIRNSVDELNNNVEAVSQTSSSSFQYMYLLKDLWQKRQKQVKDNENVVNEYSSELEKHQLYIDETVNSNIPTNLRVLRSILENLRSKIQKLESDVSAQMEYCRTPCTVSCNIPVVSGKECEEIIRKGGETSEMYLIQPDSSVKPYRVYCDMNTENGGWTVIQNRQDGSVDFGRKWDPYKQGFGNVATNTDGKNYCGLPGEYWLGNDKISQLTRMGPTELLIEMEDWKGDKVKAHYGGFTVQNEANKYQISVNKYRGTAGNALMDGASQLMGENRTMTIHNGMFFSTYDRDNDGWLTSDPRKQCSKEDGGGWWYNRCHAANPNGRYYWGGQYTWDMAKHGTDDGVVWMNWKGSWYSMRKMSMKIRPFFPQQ
T1 sequence (P02679 27-453): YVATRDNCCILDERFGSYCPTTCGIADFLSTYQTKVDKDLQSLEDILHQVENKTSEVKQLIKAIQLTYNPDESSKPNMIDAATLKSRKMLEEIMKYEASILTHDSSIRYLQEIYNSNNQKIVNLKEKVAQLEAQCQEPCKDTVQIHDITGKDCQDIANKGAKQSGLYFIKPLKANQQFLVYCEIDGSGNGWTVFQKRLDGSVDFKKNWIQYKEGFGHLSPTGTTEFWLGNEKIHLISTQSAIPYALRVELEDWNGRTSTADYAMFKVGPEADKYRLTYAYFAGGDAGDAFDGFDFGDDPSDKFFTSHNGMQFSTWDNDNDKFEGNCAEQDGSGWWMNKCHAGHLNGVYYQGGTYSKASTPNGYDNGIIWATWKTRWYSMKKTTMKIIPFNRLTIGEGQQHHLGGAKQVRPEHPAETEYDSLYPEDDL
As to the kind of experiment: Solid phase binding assay, fibrinogen binding to coated DC2, DC2-Fg, Efb. The conditions noted are these: read-out: apparent KD of fibrinogen binding. The protocol: Solid phase binding assay-: Microtiter wells were coated with 1 μg of DC2, DC2-Fg, or Efb overnight at 4° C. to assess fibrinogen adhesion to DC proteins. Coated wells were blocked with 4 wt % BSA in PBS for 1 hour at room temperature. Fibrinogen was added to each protein-coated well in a serial dilution from 100 to 0 μg/well (0.3 to 0 μM). After 1 hour of incubation at room temperature, a sheep anti-fibrinogen antibody was applied to the wells (1:1000 dilution) for 1 hour at room temperature. An HRP-labelled secondary antibody to sheep was applied to the wells for 1 hour at room temperature, and […]™ OPD was utilized to detect bound fibrinogen via an absorbance reading at 450 nm on a THERMOMAX™ plate reader. Studies were performed in triplicate, and plates were washed three times between each step with 200 μl of PBS with 0.1 vol % TWEEN® 20.

For the next assay, the target named is T2, rCoa-C binding to Fg (Homo sapiens, UniProt P02671+P02675+P02679).
T2 construct: full-length human Fibrinogen (diluted in PBS, Enzyme research); purchased Enzyme research; host or cells: Coa probe made in E. coli BL21
T2 sequence (P02671 20-629 limits assumed): T1 sequence (P02671 20-629 limits assumed)
T2 sequence (P02675 31-491): T1 sequence (P02675 31-491)
T2 sequence (P02679 27-453): T1 sequence (P02679 27-453)
The assay can be described thus: Competition ELISA, peptide inhibition of rCoa-C (Coa 311-636) binding to Fg. Conditions: increasing concentrations of peptides; 4 nM GST fusion protein. The protocol: The residues in Coa-RI important for fibrinogen binding. FIG. 12A is a panel of coa-RI variant peptides were synthesized where each residue in the sequence is individually replaced with Ala (or Ser when the native a.a. is Ala). […] Wells were coated with 0.25 μg/well Fg. Labels -1, -2, -3, -4, -5, -6, -7, -8, -9, -10, -11, -12, -13, -14, -15, -16, -17, -18, -19, -20, -21, -22, -23, -24, -25, -26, -27 refer to Coa-RI-1, Coa-RI-2, Coa-RI-3, Coa-RI-4, Coa-RI-5, Coa-RI-6, Coa-RI-7, Coa-RI-8, Coa-RI-9, Coa-RI-10, Coa-RI-11, Coa-RI-12, Coa-RI-13, Coa-RI-14, Coa-RI-15, Coa-RI-16, Coa-RI-17, Coa-RI-18, Coa-RI-19, Coa-RI-20, Coa-RI-21, Coa-RI-22, Coa-RI-23, Coa-RI-24, Coa-RI-25, Coa-RI-26, Coa-RI-27, respectively. FIG. 12C is a comparison of amino acid sequence of Efb-O with Coa-RI. FIG. 12D is a Fg-binding register of tandem repeats in Coa. Bold letters denote the residues that are important for Fg binding. Binding of a fixed concentration of rCoa-C (2 nM) to immobilized Fg was determined in the presence of a fixed concentration of these peptides (50 uM) (FIG. 12B). […]
FIG. 13A is a schematic presentation of Coa peptides. […] The Fg binding activities of these peptides were then investigated in a competition ELISA where the binding of rCoa-C to Fg coated microtiter wells were determined in the presence of increasing concentrations of peptide (FIG. 13B). […]
(In general: ELISA stands for enzyme-linked immunosorbent assay.)

For “DC2-Fg: DC2 with Fg binding motif Efb-O inserted after position 301 Gln (KYIKFKHDYNILEFNDGTFEYGARPQFNKPA; left off: things letters cannot carry; small tags and cut ends)”, the “C2C12-α1 and C2C12-α2 adhesion” value in assay [1] was “significantly increased C2C12-α1 and C2C12-α2 adhesion relative to DC2”. Further, the Kd with Fibrinogen was about 10 nM.
Consider “Efb-O: Fg binding motif Efb 68-98 (SEQ ID NO:1); coated comparator in b135 is Efb”, for which the Kd with Fibrinogen was about 1 nM.
Take “sCoa-RI2: 27-residue overlapping Coa repeat I peptide (AYNVTTHANGQVSYGARPTYKKPSETN)”: the “inhibition of rCoa-C binding to fibrinogen by overlapping Coa R peptides” value in the assay with rCoa-C binding to Fg was “some inhibitory activity”.
